Assay results published in patent US20110086806A1 (published 2011).

T1: recombinant human IL-23R/Fc chimera (R&D Systems) (human, UniProt Q5VWK5 24-355)
T1 construct: Bought; also called rhIL23RFc
T1 sequence (looked up): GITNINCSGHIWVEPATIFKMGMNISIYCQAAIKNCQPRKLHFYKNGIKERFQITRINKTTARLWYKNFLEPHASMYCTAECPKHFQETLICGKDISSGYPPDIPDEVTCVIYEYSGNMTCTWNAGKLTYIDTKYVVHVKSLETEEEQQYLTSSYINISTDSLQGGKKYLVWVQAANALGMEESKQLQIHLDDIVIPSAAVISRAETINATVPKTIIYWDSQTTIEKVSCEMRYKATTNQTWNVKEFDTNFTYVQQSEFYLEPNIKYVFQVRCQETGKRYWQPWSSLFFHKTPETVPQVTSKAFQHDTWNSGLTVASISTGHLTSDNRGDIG


Key:
[1] = target: T1, recombinant human IL-23R/Fc chimera …; experiment: SPR
Procedure: A Biacore 3000 biosensor (GE Healthcare) was used to evaluate the interaction of human IL-23R and receptor binders. Immobilization of an anti-human IgG Fc antibody (GE Healthcare) to the CM5 chip (GE Healthcare) was performed using standard amine coupling chemistry, and this modified surface was used to capture a recombinant human IL-23R/Fc fusion protein (R&D Systems). A low-density receptor surface, less than 200 RU, was used for all of the analyses. ATRIMER™ polypeptide complex dilutions (1-500 nM) were injected over the IL-23R surface at 30 μl/min and kinetic constants were derived from the sensorgram data using the Biaevaluation software (version 3.1, GE Healthcare). Data collection was 3 minutes for the association and 5 minutes for dissociation. The anti-human IgG surface was regenerated with a 30s pulse of 3M magnesium chloride. All sensorgrams were double-referenced against an activated and blocked flow-cell as well as buffer injections.

[2] = target: T1, recombinant human IL-23R/Fc chimera …; experiment: competition ELISA vs IL-23
Procedure: Assays were performed generally as follows. Individual wells in Immulon HB2 plates were incubated overnight at 4° C. with 100 μL PBS containing 100 ng of an anti-human IgG Fc (R&D MAB 110 clone 97924). Plates were washed five times with PBS/0.05% Tween 20, and wells were incubated for 1.5 h at RT with 100 μL each of PBS containing 50 ng of recombinant human IL-23R/Fc. […] Competitor was included at a final concentration of 1 μg/mL. After incubation, plates were washed as described and wells were incubated for 40 min at RT with 100 μL each of PBS containing a 1:5000 dilution of streptavidin-HRP conjugate (Pierce catalog no. 21130). After washing, wells were incubated with 100 μL each of TMB (BioFX Lab catalog no. TMBH-1000-0) for up to 30 min at RT. Reactions were stopped with an equal volume of 0.2 M sulfuric acid.

| Ka [1] [M⁻¹] | Kd [1] [nM] | koff [1] [s⁻¹] | kon [1] [M⁻¹ s⁻¹] | Ratio IC50 to 056-53.H4E IC50 [2] | Binder |
| --- | --- | --- | --- | --- | --- |
| 5.62e+06 | 178 | 0.0074 | 41600 | – | 001-89.C12E monomeric CTLD (designed binder, C-terminal tag not specified) ALQTVCLKGTKVHMKCFLAFTQTKTFHEASEDCISRGGTLSTPQTGSENDALYEYLRQSVGNEAEIWLGLNWTKRTALWVDMTGARIAYKNWETEITAQPDGGMFGMGENCAVLSGAANGKWFDKRCRDQLPYICQFGIV |
| – | – | – | – | 2.9 | 105-08-1A7 ATRIMER complex (designed binder, ATRIMER complex: homotrimer of three copies of this chain, joined by the tetranectin coiled coil, not shown: C-terminal tag: Myc/His (pANA4) or HA-StrepII (pANA10)) EPPTQKPKKIVNAKKDVVNTKMFEELKSRLDTLAQEVALLKEQQALQTVCLKGTKVHMKCFLAFTQTKTFHEASEDCISRGGTLSTPQTGSENDALYEYLRQSVGNEAEIWLGLNGSVRTNTWVDMTGARIAYKNWETEITAQPDGGFGYFGENCAVLSGAANGKWFDKRCRDQLPYICQFGIV |
| – | – | – | – | 3.3 | 105-08-1B1 ATRIMER complex (designed binder, ATRIMER complex: homotrimer of three copies of this chain, joined by the tetranectin coiled coil, not shown: C-terminal tag: Myc/His (pANA4) or HA-StrepII (pANA10)) EPPTQKPKKIVNAKKDVVNTKMFEELKSRLDTLAQEVALLKEQQALQTVCLKGTKVHMKCFLAFTQTKTFHEASEDCISRGGTLSTPQTGSENDALYEYLRQSVGNEAEIWLGLNGSPRTQTWVDMTGARIAYKNWETEITAQPDGGFGYFGENCAVLSGAANGKWFDKRCRDQLPYICQFGIV |
| – | – | – | – | 4.3 | 105-08-1A10 ATRIMER complex (designed binder, not shown: C-terminal tag: His/Myc (pANA4) or HA-StrepII (pANA10)) EPPTQKPKKIVNAKKDVVNTKMFEELKSRLDTLAQEVALLKEQQALQTVCLKGTKVHMKCFLAFTQTKTFHEASEDCISRGGTLSTPQTGSENDALYEYLRQSVGNEAEIWLGLNGSSITDTWVDMTGARIAYKNWETEITAQPDGGWGYFGENCAVLSGAANGKWFDKRCRDQLPYICQFGIV |

The next lines start with the binder.

| Binder | Ka [1] [M⁻¹] | Kd [1] [nM] | koff [1] [s⁻¹] | kon [1] [M⁻¹ s⁻¹] | Ratio IC50 to 056-53.H4E IC50 [2] |
| --- | --- | --- | --- | --- | --- |
| 001-87.A4A monomeric CTLD (designed binder, C-terminal tag not specified) ALQTVCLKGTKVHMKCFLAFTQTKTFHEASEDCISRGGTLSTPQTGSENDALYEYLRQSVGNEAEIWLGLNWTLAKNLWVDMTGARIAYKNWETEITAQPDGGLFGRGENCAVLSGAANGKWFDKRCRDQLPYICQFGIV | 5.18e+06 | 193 | 0.0229 | 118000 | – |
| 001-89.C7F monomeric CTLD (designed binder) ALQTVCLKGTKVHMKCFLAFTQTKTFHEASEDCISRGGTLSTPQTGSENDALYEYLRQSVGNEAEIWLGLNGSLLTGLWVDMTGARIAYKNWETEITAQPDGGYGAWGENCAVLSGAANGKWFDKRCRDQLPYICQFGIV | 6.75e+06 | 148 | 0.00531 | 35800 | – |
| 001-89.C3C monomeric CTLD (designed binder, C-terminal tag not specified) ALQTVCLKGTKVHMKCFLAFTQTKTFHEASEDCISRGGTLSTPQTGSENDALYEYLRQSVGNEAEIWLGLNANRRRTMWVDMTGARIAYKNWETEITAQPDGGMGVWGENCAVLSGAANGKWFDKRCRDQLPYICQFGIV | 5.34e+06 | 187 | 0.0158 | 84500 | – |
| 001-87.A8E monomeric CTLD (designed binder, C-terminal tag not specified) ALQTVCLKGTKVHMKCFLAFTQTKTFHEASEDCISRGGTLSTPQTGSENDALYEYLRQSVGNEAEIWLGLNANPAQDLWVDMTGARIAYKNWETEITAQPDGGFGVWGENCAVLSGAANGKWFDKRCRDQLPYICQFGIV | 7.09e+06 | 141 | 0.00757 | 53700 | – |
| 001-87.A5F monomeric CTLD (designed binder, not shown: small tags and cut ends, C-terminal tag not specified) ALQTVCLKGTKVHMKCFLAFTQTKTFHEASEDCISRGGTLSTPQTGSENDALYEYLRQSVGNEAEIWLGLNGSVRSATWVDMTGARIAYKNWETEITAQPDGGFGYFGENCAVLSGAANGKWFDKRCRDQLPYICQFGIV | 4.11e+07 | 24.3 | 0.00415 | 170000 | – |
| 001-87.A9E monomeric CTLD (designed binder, C-terminal tag not specified) ALQTVCLKGTKVHMKCFLAFTQTKTFHEASEDCISRGGTLSTPQTGSENDALYEYLRQSVGNEAEIWLGLNGSALTNTWVDMTGARIAYKNWETEITAQPDGGLGYWGENCAVLSGAANGKWFDKRCRDQLPYICQFGIV | 9.29e+06 | 108 | 0.0041 | 38100 | – |
